Data on three molecules can be found in US20240294638A1 (LES LABORATOIRES SERVIER, published 2024).

Experiment [1] concerns the target T1, CD94 homodimer (human, UniProt Q13241 32-179, limits assumed).
T1 sequence (looked up): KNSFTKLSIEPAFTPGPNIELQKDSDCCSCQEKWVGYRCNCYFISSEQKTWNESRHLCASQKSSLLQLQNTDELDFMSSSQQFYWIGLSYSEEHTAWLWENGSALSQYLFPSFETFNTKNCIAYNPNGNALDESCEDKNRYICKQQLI
The experiment in a line: SPR. The procedure:
(§1) Kinetic binding analysis of anti-NKG2A monoclonal antibodies (mAbs) was performed by Surface Plasmon Resonance (SPR) using a Continuous Flow Microspotter (CFM, Wasatch Microfluidics, Salt Lake City, US) combined with an IBIS MX96 SPR instrument (IBIS Technologies, The Netherlands). The extracellular domains (ECDs) of human his-tagged NKG2A, NKG2C and FLAG-tagged CD94 were co-expressed using an Expi293™ expression system and purified by standard Ni-NTA chromatography followed by anti-Flag M2 affinity gel (A2220, Sigma). Binding kinetics were measured by capturing mAbs on a G-a-hu-IgG Fc SensEye® for 15 minutes using the CFM. After spotting, the SensEye® was positioned in the IBIS MX96 biosensor and immobilized mAbs were fixed by SensEye FixIt kit. Kinetic analysis was performed by applying a kinetic titration series injecting increasing concentrations of antigens from 1.6 nM to 400 nM as 2-fold dilutions. After each cycle of antigen injection, the surface was regenerated by 100 mM H₃PO₄, pH 3. Antigen association and dissociation were measured for 15 minutes. The recorded binding responses were fitted to a simple 1:1 binding model with Scrubber 2.0 software for calculation of the on-rate (kₒₙ or kₐ), off-rate (Koff or kd) and affinity (KD) constants. Binding kinetic parameters were measured as an average of three independent measuring points.
The binding affinities and kinetic parameters of the anti-NKG2A mAbs binding to NKG2A/CD94 and NKG2C/CD94 heterodimers are shown in Table 7. […] None of the mAbs bound to CD94 homodimer (data not shown).

Experiment [2] concerns the target T2, recombinant human NKG2A/CD94 heterodimer (extracellular domains) (human, UniProt Q13241 32-179).
T2 construct: extracellular domain; ECDs co-expressed in Expi293, purified by Ni-NTA and anti-Flag; also called HuNKG2A/huCD94; NKG2A/CD94 ECDs
The experiment in a line: SPR (IBIS MX96), mAb captured on anti-human IgG Fc, ECD heterodimer injected, 1:1 fit. As to the method:
as §1

Experiment [3] concerns the target T3, recombinant human NKG2C/CD94 heterodimer (extracellular domains) (human, UniProt P26717 94-231; Q13241 32-179).
T3 construct: extracellular domain; also called HuNKG2C/huCD94; NKG2C/CD94 ECDs
The experiment is described as above. As to the method:
as §1

Experiment [4] has as its target T4, human NKG2A and human CD94 expressed on transiently transfected CHO-S cells (human, UniProt Q13241 1-179).
T4 construct: whole, on cells; also called human NKG2A/CD94 heterodimer
The experiment in a line: flow cytometry, transiently transfected CHO-S cells, AF647 goat anti-human IgG secondary (MFI) [panel 23686]. As to the method:
(§2) CHO-S cells were transiently transfected with human NKG2A and human CD94, human NKG2C and human CD94, cynomolgus NKG2A and cynomolgus CD94 or cynomolgus NKG2C and cynomolgus CD94 constructs. Mock transfected CHO-S cells were included in the assay as a negative control. Antibodies were tested for binding to the transfected cells in 3-fold dilutions from 30 μg/mL down to 0.5 ng/ml antibody, and 0 μg/mL antibody, and incubated for 30 min at 4° C. Following a washing step, the cells were incubated with a fluorescent goat anti-human IgG (H+L) secondary antibody (A-21445, Invitrogen) for 30 min at 4° C. in the dark. After a second wash, the cells were tested by high throughput flow cytometry (IQue screener, Sartorius). Data were transferred to Excel and graphs were generated using GraphPad Prism® software.
On the technique in general: Flow cytometry measures light scatter and fluorescence of single cells or particles in a stream.

Experiment [5] deals with T5, human NKG2C and human CD94 expressed on transiently transfected CHO-S cells (human, UniProt P26717 1-231; Q13241 1-179).
T5 construct: whole, on cells
Described as above. The procedure: as §2

Experiment [6] concerns the target T6, cynomolgus NKG2A and cynomolgus CD94 expressed on transiently transfected CHO-S cells (cynomolgus, UniProt Q68VD2 1-233; Q68VD4 1-179).
T6 construct: whole, on cells
The experiment is described as above. As to the method: as §2

The target of experiment [7] is T7, cynomolgus NKG2C and cynomolgus CD94 expressed on transiently transfected CHO-S cells (cynomolgus).
T7 construct: whole, on cells
The experiment is described as above. As to the method:
as §2

For experiment [8], the target named is T8, I225M (Homo sapiens).
T8 construct: co-expressed on CHO-S cells; also called human NKG2A I225M / human CD94 heterodimer on CHO-S cells
The experiment in a line: flow cytometry, CHO-S cells transiently transfected with NKG2A variant and CD94, AF647 goat anti-human IgG secondary (MFI) [panel 23686]. The procedure: (§3) Six anti-human NKG2A antibodies were tested for binding to the different heterodimers expressed. Antibodies were tested for binding to the transfected cells in 3-fold serial dilutions from 1 μg/mL antibody, and 0 μg/ml antibody, and incubated for 30 min at 4° C. Following a washing step, the cells were incubated with a fluorescent goat anti-human IgG (H+L) secondary antibody (A-21445, Invitrogen) for 30 min at 4° C. in the dark. After a second wash, the cells were tested by high throughput flow cytometry (IQue screener, Sartorius). Data were transferred to Excel and graphs were generated using GraphPad Prism® software. A reference antibody analogue and an isotype control were included for comparison.

For experiment [9], the target named is T4, human NKG2A and human CD94 expressed on …. Described as above. The procedure: as §3
The target of experiment [10] is T5, human NKG2C and human CD94 expressed on …. Described as above. The procedure: as §3
Experiment [11] has as its target T6, cynomolgus NKG2A and cynomolgus CD94 …. The experiment in a line: blocking of PE-conjugated HLA-E pentamer binding to transiently transfected CHO-S cells, flow cytometry (percentage binding) [panel B cNKG2A]. As to the method: (§4) CHO-S cells were transiently transfected with constructs for expression of human NKG2A and human CD94, human NKG2C and human CD94, cynomolgus NKG2A and cynomolgus CD94, or cynomolgus NKG2C and cynomolgus CD94. Mock transfected CHO-S cells were included in the assay as negative control. A PE-conjugated HLA-E pentamer was tested for binding to the heterodimers in the presence of anti-human NKG2A antibodies in 3-fold serial dilutions from 10 μg/mL down to 14 ng/mL antibody, and 0 μg/mL antibody. The antibodies were allowed to bind for 30 min at 4° C. prior to the addition of the HLA-E pentamer in a 1:50 dilution. The fluorescence intensity of HLA-E binding to the transfected cells was measured by high throughput flow cytometry (IQue screener, Sartorius). Data were transferred to Excel and graphs were generated using GraphPad Prism® software.

For experiment [12], the target named is T5, human NKG2C and human CD94 expressed on …. Nature of the experiment: blocking of PE-conjugated HLA-E pentamer binding to transiently transfected CHO-S cells, flow cytometry (percentage binding) [cont.), panel C hNKG2C]. The procedure: as §4
For experiment [13], the target named is T7, cynomolgus NKG2C and cynomolgus CD94 …. The experiment in a line: blocking of PE-conjugated HLA-E pentamer binding to transiently transfected CHO-S cells, flow cytometry (percentage binding) [cont.), panel D cNKG2C]. As to the method:
as §4

The target of experiment [14] is T4, human NKG2A and human CD94 expressed on …. The experiment in a line: flow cytometry, transiently transfected CHO-S cells, AF647 goat anti-human IgG secondary (MFI) [cont.), panel 23925]. As to the method:
as §2

Experiment [15] addresses T8, I225M. Nature of the experiment: flow cytometry, CHO-S cells transiently transfected with NKG2A variant and CD94, AF647 goat anti-human IgG secondary (MFI) [cont.), panel 23925]. The procedure: as §3
In experiment [16] the target is T4, human NKG2A and human CD94 expressed on …. The description is as above. The procedure:
as §3

For experiment [17] the target is unchanged. The experiment in a line: flow cytometry, transiently transfected CHO-S cells, AF647 goat anti-human IgG secondary (MFI) [panel 23566]. The procedure:
as §2

In experiment [18] the target is T6, cynomolgus NKG2A and cynomolgus CD94 …. Described as above. The procedure: as §2
Experiment [19] concerns the target T4, human NKG2A and human CD94 expressed on …. Nature of the experiment: flow cytometry, CHO-S cells transiently transfected with NKG2A variant and CD94, AF647 goat anti-human IgG secondary (MFI) [panel 23566]. As to the method: as §3

Changes are numbered by the printed parent chain. Names may count otherwise.

T5 sequence (P26717 whole entry, one chain of several): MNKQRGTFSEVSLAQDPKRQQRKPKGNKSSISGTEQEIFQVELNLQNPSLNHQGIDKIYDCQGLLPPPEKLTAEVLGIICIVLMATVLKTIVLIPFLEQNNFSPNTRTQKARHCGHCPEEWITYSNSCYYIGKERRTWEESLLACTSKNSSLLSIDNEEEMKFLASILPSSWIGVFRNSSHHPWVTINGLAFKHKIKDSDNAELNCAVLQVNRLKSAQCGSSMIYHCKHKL
T3 sequence (P26717 94-231, chain 1 of 2, one chain of several): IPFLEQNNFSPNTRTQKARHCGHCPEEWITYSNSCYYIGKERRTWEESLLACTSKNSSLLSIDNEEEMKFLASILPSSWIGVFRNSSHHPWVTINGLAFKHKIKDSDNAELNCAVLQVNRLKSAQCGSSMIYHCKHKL
T2 sequence (chain, as listed by the source, chain 1 of 2, one chain of several): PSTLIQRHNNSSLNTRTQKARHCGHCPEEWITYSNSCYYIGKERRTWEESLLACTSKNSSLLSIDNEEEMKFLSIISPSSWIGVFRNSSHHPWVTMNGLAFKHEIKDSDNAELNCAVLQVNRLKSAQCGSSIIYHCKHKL
T8 sequence (P26715 whole entry I225M): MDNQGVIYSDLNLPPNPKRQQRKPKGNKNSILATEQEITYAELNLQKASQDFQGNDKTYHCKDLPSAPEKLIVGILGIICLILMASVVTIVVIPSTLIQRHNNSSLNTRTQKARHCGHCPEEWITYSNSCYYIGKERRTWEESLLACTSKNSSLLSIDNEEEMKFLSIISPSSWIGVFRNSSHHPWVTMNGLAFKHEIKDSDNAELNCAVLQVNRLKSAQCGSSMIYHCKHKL

B1: antibody 23686 (antibody, human IgG1, kappa, L234A L235A, V domains shown)
VH: EVQLVESGGGLVKPGGSLRLSCAASGFTFSSYSMNWVRQAPGKGLEWVSSISSSSSYIYYADSVKGRFTISRDNAKNSLYLQMNSLRAEDTAVYYCARDEWGLLGFDSWGQGTLVTVSS
VL: EIVLTQSPATLSLSPGERATLSCRASQSISNYLAWYQQKPGQAPRLLIYDASNRATGIPARFSGSGSGTDFTLTISSLEPEDFAVYYCQQRTDWPPWTFGQGTKVEIKR
notes: Fully human IgG1-LALA (L234A/L235A), kappa
Regarding B1, the binding result in [1] was “no binding”. Besides, the Kd (as a rule, the concentration at which binding is half-saturated) in [2] came to 0.72 nM; in experiment [3] it was 3.9 nM. Moreover, the figures for the koff in experiment [2] and in [3] were 0.00014 s⁻¹ and 0.0026 s⁻¹, respectively. Further, the values for the kon in [2] and in experiment [3] were 200000 M⁻¹ s⁻¹ and 670000 M⁻¹ s⁻¹, respectively. Further, the half-maximal effective concentration (EC50 (read off the curve)) (usually the concentration that produces a half-maximal response) in [4] was roughly 0.03 µg/mL; in [5], roughly 0.01 µg/mL; in experiment [6] it was roughly 0.02 µg/mL; in experiment [7] it was roughly 0.02 µg/mL; in experiment [8], roughly 0.007 µg/mL; in [9], roughly 0.005 µg/mL. In addition, the “EC50 (read off the curve)” value in experiment [10] was roughly 0.003 µg/mL. Also, the “IC50 (read off the curve)” value in experiment [11] is roughly 0.3 µg/mL; in experiment [12] it was roughly 0.2 µg/mL; in [13], roughly 0.7 µg/mL.

B2: antibody 23925 (antibody, human IgG1, kappa, L234A L235A, V domains shown)
VH: EVQLVESGGGLVQPGGSLRLSCAASGFTFSSYAMNWVRQAPGKGLEWVSTISNSGGTTYYADSVKGRFTISRDNSKDTLYLQMNSLRAEDTAVYYCAKAHYYARGYFDYWGQGTLVTVSS
VL: DIQMTQSPSSVSASVGDRVTITCRASQGISSWLAWYQQKSGKAPKLLIYAASSLQIGVPSRFSGSGSGTDFTLTISSLQPEDFATYYCQQANSFPYTFGQGTKLEIKR
notes: as for B1
Regarding B2, the figures for the binding result in [1] and in experiment [11] were “no binding” and “no binding (tested: 10000 ng/ml)”, respectively. The Kd worked out at 2.23 nM in experiment [2] and 68 nM in experiment [3]. Further, the koff (in general, the first-order rate constant of dissociation) in [2] was determined as 0.00042 s⁻¹; in experiment [3], 0.0006 s⁻¹. The figures for the on-rate (kon) in [2] and in experiment [3] were 190000 M⁻¹ s⁻¹ and 8800 M⁻¹ s⁻¹, respectively. In addition, the results for the “EC50 (read off the curve)” value in experiment [14], in experiment [15] and in experiment [16] were roughly 0.02 µg/mL, roughly 0.003 µg/mL and roughly 0.004 µg/mL, respectively.

B3: antibody 23566 (antibody, human IgG1, kappa, L234A L235A, V domains shown)
VH: B2 VH with V5L, G10D, S30D, S31N, N35H, S52T, I70L, D77N, Y109F
VL: B2 VL with S7T, S40P, I56S
notes: Fully human IgG1-LALA (L234A/L235A), kappa; also called mAb 23566
Regarding B3, the figures for the binding result in experiment [1] and in [18] were “no binding” and “no binding (tested: about 3300 ng/ml)”, respectively. In addition, the dissociation constant (Kd) in experiment [2] was determined as 2.5 nM; in experiment [3], 98 nM. The off-rate constant (koff) in experiment [2] was found to be 0.0011 s⁻¹; in [3] it was 0.00083 s⁻¹. In addition, the kon (usually the rate constant with which the complex forms) worked out at 420000 M⁻¹ s⁻¹ in experiment [2] and 8500 M⁻¹ s⁻¹ in experiment [3]. Further, the figures for the “EC50 (read off the curve)” value in experiment [17] and in experiment [19] were roughly 0.02 µg/mL and roughly 0.005 µg/mL, respectively.
